{"source": "paper PMC4065374", "binders": {"B1": {"name": "GST-tagged Aeromonas caviae flagellin-specific chaperone FlaJ (GST-FlaJ) (natural protein)", "chain": "MYKRNIKAYTAGNLAADLATADPHRVIQLMMQGCLERLAQAKGAIERNDMEAKSIAISKAQGLLHGLQDALDMSQGRMAEDLYGLYAYMDERVWDASLNRDTEPLEEVMTLMLTIKSGWDQLPETEKNQGYQMRQQLGEL"}}, "biological_target": "glycosylated Aeromonas caviae polar flagellin FlaA, FlaA (+pse) (Aeromonas caviae (endogenous in A. caviae Sch3N and its flaB mutant AAR27))", "experiment": "far-Western, overlay or dot blot; glycosylated and unglycosylated FlaA titrated across an SDS-PAGE gel, transferred to nitrocellulose, probed with a constant concentration of GST-FlaJ; αGST-HRP, densitometry, triplicate blots"}
{"binder": "B1", "values": [{"measurement": "fold more GST-FlaJ bound than to equimolar unglycosylated FlaA", "result": 5, "unit": "fold"}]}
